Data as given in PMC8537121.

Experiments:
[1] = target: Human MAP/Microtubule Affinity Regulating Kinase 4 (MARK4), recombinant, containing both kinase and UBA domains (human) (UniProt Q96L34); test: other fluorescence titration; quenching of the intrinsic fluorescence of MARK4 (emission at 344 nm) by irisin, 0-1 µM; fitted to a modified Stern-Volmer equation
[2] = target: Human MAP/Microtubule Affinity Regulating Kinase 4 (MARK4), recombinant, containing both kinase and UBA domains (human) (UniProt Q96L34); test: ITC; VP-ITC; 15 µM MARK4 in the sample cell, 200 µM irisin in the syringe; two-site model
[3] = target: Human MAP/Microtubule Affinity Regulating Kinase 4 (MARK4), recombinant, containing both kinase and UBA domains (human) (UniProt Q96L34)

Chain of UniProt Q96L34 (Q96L34 44-370): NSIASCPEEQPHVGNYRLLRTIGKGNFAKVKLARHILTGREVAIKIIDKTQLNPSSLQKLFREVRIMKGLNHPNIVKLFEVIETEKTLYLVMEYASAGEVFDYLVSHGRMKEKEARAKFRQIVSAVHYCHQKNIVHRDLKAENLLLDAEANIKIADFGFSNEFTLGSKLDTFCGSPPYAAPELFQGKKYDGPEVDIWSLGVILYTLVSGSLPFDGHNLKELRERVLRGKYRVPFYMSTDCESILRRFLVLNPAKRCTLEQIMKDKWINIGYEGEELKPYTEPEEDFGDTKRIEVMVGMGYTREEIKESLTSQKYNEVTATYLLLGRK

Ka [1]: 8e+06 M⁻¹
Ka1 (site 1 of the two-site model) [2]: 2590 M⁻¹
Ka2 (site 2 of the two-site model) [2]: 1.19e+06 M⁻¹
dH1 (site 1 of the two-site model) [2]: -1550 kcal/mol
dH2 (site 2 of the two-site model) [2]: 190 kcal/mol
IC50 of inhibition of MARK4 kinase activity (ATPase assay), irisin 0-15 µM [3]: 2710 nM
Substance: Human irisin (natural protein)
